Legend:
mouse C1q [1] = molecular target: T1, mouse C1q (mouse, UniProt P14106 26-253); assay: OCTET biosensor, C1q immobilized; mouse C1q
T1 construct: In the CH50 assay the C1q is the one present in C57Bl/6 mouse serum; also called mouse C1q protein
Protocol: (§1) C1q-antibody interactions were measured using an OCTET™ System according to standard protocols and manufacturer's instructions. Briefly, human and mouse C1q proteins were immobilized separately on a biosensor at three concentrations (3 nM, 1.0 nM, and 0.33 nM).

[2] = molecular target: T2, human complement factor C1q (human, UniProt P02745 23-245; P02746 28-253; P02747 29-245); assay: OCTET biosensor, C1q immobilized; human C1q
T2 construct: The immunogen was C1q purified from human plasma (Complement Technology A-099); In the CH50 assays the C1q is the one present in human serum; Observed mass about 460 kDa; also called human C1q; hC1q
T2 sequence (P02745 23-245 limits assumed, chain 1 of 3): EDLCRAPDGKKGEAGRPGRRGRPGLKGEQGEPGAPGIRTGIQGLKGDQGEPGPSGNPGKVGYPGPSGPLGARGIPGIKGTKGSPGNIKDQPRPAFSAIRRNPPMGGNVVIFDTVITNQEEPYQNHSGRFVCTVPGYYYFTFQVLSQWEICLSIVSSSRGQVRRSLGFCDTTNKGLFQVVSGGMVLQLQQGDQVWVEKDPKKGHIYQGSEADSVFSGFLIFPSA
T2 sequence (P02746 28-253 limits assumed, chain 2 of 3): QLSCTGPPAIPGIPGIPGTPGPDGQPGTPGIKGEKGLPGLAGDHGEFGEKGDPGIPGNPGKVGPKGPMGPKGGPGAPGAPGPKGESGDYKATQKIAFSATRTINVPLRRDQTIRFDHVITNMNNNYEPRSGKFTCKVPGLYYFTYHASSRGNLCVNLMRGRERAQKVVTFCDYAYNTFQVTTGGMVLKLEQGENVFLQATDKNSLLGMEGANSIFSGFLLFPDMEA
T2 sequence (P02747 29-245 limits assumed, chain 3 of 3): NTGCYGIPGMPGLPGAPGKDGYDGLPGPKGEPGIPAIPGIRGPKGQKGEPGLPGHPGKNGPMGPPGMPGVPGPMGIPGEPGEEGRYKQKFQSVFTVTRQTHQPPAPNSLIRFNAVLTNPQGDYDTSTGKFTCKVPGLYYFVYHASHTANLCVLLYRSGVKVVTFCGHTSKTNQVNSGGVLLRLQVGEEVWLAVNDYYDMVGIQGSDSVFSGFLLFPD
Protocol: as §1

[3] = molecular target: T2, human complement factor C1q; assay: OCTET biosensor, C1q immobilized, full length antibody in solution
Protocol: as §1

mouse C1q [4] = molecular target: T1, mouse C1q; assay: as above
Protocol: as §1

T1 sequence (chain, as listed by the source, chain 1 of 3): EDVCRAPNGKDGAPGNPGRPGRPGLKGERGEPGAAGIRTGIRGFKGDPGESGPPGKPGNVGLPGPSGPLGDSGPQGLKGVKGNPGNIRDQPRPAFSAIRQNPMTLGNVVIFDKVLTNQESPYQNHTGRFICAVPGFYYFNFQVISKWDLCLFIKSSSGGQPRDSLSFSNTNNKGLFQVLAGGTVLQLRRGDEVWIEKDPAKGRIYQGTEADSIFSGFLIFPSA
T1 sequence (P14106 26-253, chain 2 of 3): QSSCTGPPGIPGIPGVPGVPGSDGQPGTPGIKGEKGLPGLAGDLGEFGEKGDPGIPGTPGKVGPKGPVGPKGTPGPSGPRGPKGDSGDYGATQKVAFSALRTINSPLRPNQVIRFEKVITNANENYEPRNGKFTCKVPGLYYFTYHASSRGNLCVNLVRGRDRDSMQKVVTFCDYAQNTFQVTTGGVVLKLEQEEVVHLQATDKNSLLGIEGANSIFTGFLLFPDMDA
T1 sequence (chain, as listed by the source, chain 3 of 3): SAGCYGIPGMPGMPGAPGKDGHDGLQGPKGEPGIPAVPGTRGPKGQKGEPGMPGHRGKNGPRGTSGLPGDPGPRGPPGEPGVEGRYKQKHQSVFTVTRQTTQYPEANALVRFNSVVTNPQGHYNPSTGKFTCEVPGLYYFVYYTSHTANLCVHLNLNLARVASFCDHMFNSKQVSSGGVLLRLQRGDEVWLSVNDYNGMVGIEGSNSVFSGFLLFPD

- Kd (mouse C1q [1]): < 0.1 nM
- Kd [2]: < 0.1 nM
- Kd [3]: 0.0128 nM
- Kd (mouse C1q [4]): 0.0323 nM
B1: murine anti-human C1q monoclonal antibody M1 (antibody, mouse IgG1, V domains shown)
VH: QVQLQQPGAELVKPGASVKLSCKSSGYHFTSYWMHWVKQRPGQGLEWIGVIHPNSGSINYNEKFESKATLTVDKSSSTAYMQLSSLTSEDSAVYYCAGERDSTEVLPMDYWGQGTSVTVSS
VL: DVQITQSPSYLAASPGETITINCRASKSINKYLAWYQEKPGKTNKLLIYSGSTLQSGIPSRFSGSGSGTDFTLTISSLEPEDFAMYYCQQHNEYPLTFGAGTKLELK
notes: Tested as full length hybridoma antibody; Isotype mouse IgG1, kappa; also called ANN-005; anti-C1q antibody M1

Source: US20170334976A1 (ANNEXON, published 2017)
